Patent US11421026B2, “Antibodies that bind human cannabinoid 1 (CB1) receptor” (BIRD ROCK BIO, Inc., priority 2015, dated 2022)

How the values were obtained:
[1] = target: A138 iCAPS (human CB1, ICL3 replaced with protein 1 sequence); assay: ELISA binding of IgG/Fab to CB1 iCAPS A138; conditions: IgG and Fab ELISA, Table 8
Experimental: Purified IgG was tested for binding to purified CB1 receptor (CB1 Conformation Antigen Presenting System (iCAPS)) by ELISA. Non-biotinylated antigens (e.g. empty iCAPS) were coated directly on Maxisorp plates. The primary antibodies were purified IgGs with 1:3 serial dilutions, incubated on the plate for 1 hour. After 3 rounds of washing with PBST, secondary antibodies HRP goat anti-mouse IgG (Abmart) or HRP goat anti-human IgG (Sigma), depending on the species of the IgGs were added and incubated for another hour. The plates were washed three times with PBST, then developed with TMB (Biopanda). HCl was added to the plates to stop the reaction. Absorbance at 450 nm was read on Emax precision microplate reader (Molecular Devices).
IgG and Fab molecules tested were 36E12B6C2 IgG, 36E12B6C2 Fab, PA13R3-P1C4 IgG, and PA13R3-P1C4 Fab, compared to negative control BRIL binder P1F7 IgG and P1F7 Fab. For IgG antibodies, the secondary antibody used to detect binding was anti-mouse IgG-HRP; for Fabs, the secondary antibody used to detect binding was anti-human IgG-HRP.

[2] = target: T1, CB1 (TRex-CHO cells stably expressing human CB1) (Homo sapiens, UniProt P21554); format: cell-based
T1 construct: pcDNA4/TO native full length human CB1 receptor construct was transfected into tetracycline inducible system Trex-CHO and Trex-293 cells; expressed in transfected cells
T1 sequence (P21554 whole entry): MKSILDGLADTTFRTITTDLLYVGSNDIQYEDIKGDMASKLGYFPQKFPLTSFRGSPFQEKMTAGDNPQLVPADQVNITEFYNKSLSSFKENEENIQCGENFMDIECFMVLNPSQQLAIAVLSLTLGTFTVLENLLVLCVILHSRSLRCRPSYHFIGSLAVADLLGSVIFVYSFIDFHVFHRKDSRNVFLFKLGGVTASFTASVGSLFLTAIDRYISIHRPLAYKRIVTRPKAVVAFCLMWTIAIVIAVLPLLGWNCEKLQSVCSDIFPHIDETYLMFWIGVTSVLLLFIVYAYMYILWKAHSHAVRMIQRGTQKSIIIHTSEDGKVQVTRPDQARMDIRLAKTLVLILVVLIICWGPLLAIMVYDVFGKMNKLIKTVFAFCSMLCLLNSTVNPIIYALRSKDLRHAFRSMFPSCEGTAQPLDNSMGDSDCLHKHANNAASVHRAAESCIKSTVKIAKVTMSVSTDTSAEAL
Experimental: A cAMP functional assay was performed to measure the antagonism of the antibodies. […] Data analysis was performed using GraphPad Prism.
Cell numbers, forskolin concentration and CP55,940 concentration were optimized according to the manufacturer's instructions. The cAMP antagonist functional assay was performed in white 384-well low volume plates (Greiner). […] Data analysis was performed using GraphPad Prism.
Data analysis was performed using GraphPad Prism. The mean±SD of IC50s and dissociation constants (Kd) shown were measured from at least 2 different experiments.
After 30 minutes incubation at 22° C., 5 μL cAMP-d2 and 5 μL anti-cAMP cryptate were added to the cells and incubated for 1 hour. […] Data analysis was performed using GraphPad Prism.

[3] = test system: CB1 receptor signaling, WIN55,212 induced ERK phosphorylation in Trex-CHO CB1 receptor cells; assay: ERK activation assay (western blot); format: cell-based, human; conditions: IgG 300 nM; WIN55,212 100 nM, 10 and 15 minutes
Experimental: (§1) Two days before the experiment, Trex-CHO CB1 receptor cells were seeded at 500,000 cells/well into 6-well plates. 1 μg/mL tetracycline was used to induce CB1 receptor expression after 24 hours. Cells were serum starved for at least two hours before the experiment. […] Cell lysates were harvested and the level of ERK activation was determined by western blot. Anti-ERK and Anti-phospho-specific ERK antibodies were obtained from Cell Signaling Inc.
as §1, with “Trex-CHO CB1 receptor-expressing cells were” for “Trex-CHO CB1 receptor cells were”

[4] = target: T2, human CB1 expressing TRex-CHO cells (Homo sapiens, UniProt P21554); format: cell-based; conditions: forskolin stimulated TRex-CHO CB1 cells
T2 construct: pcDNA4/TO native full length human CB1 receptor construct was transfected into tetracycline inducible system Trex-CHO and Trex-293 cells; expressed in transfected cells
T2 sequence (P21554 whole entry): as above
Experimental: Data analysis was performed using GraphPad Prism software.
Data analysis was performed using GraphPad Prism.

[5] = test system: denatured CB1 protein (His tagged, N/C-termini truncated human CB1); assay: Western blot recognition of denatured CB1 protein; format: binding; conditions: 2 μg/mL
Experimental: A study was performed to examine whether PA13R3-P1C4 and its humanized variant antibodies recognize epitope(s) on denatured CB1 protein (His tagged, N/C-termini truncated CB1) by western blot analysis. Purified human CB1 protein (750 ng per lane) was mixed with SDS reducing buffer containing beta-mercaptoethanol (Double Helix). […] Membranes were blocked with 5% NFDM/PBS-T for one hour at 22° C. followed by immune-blotting with test antibodies (2 μg/mL) in 5% NFDM/PBS-T overnight at 4° C. Commercial mouse anti-His antibody and mouse anti-CB1 antibody (R&D Systems) were used as positive controls, and rabbit anti-CB1 antibody (Cayman), which recognizes a C-terminal region that was deleted from the recombinant CB1 protein used in this study, served as a negative control.
After overnight incubation, membranes were washed with 0.5% Tween-20 PBS (PBS-T) three times at 22° C. Secondary antibodies AP-conjugated anti-human IgG (1:5000) or anti-mouse IgG or anti-rabbit IgG in 5% NFDM/PBS-T were added to respective membranes and incubated for 1 hour at 22° C. Membranes were washed three times with PBS-T each for 5 minutes. After the final wash, signal was developed by incubating with NBT/BCIP substrate solution at 22° C. and the reaction was stopped by washing the membrane under running water.

[6] = target: T3, CB1 surface expression (CB1 TRex-CHO / TRex-293 cells) (Homo sapiens, UniProt P21554); format: cell-based; conditions: tetracycline induced, humanized variants
T3 construct: pcDNA4/TO native full length human CB1 receptor construct was transfected into tetracycline inducible system Trex-CHO and Trex-293 cells; expressed in transfected cells; tetracycline induced
T3 sequence (P21554 whole entry): as above

[7] = target: CB1 receptor (TRex-CHO CB1 cells) (Homo sapiens, UniProt P21554); assay: Flow cytometry binding of P1C4 Fab
CB1 receptor (TRex-CHO CB1 cells), sequence (P21554 whole entry): as above
Experimental: To determine PA13R3-P1C4 Fab binding affinity, full binding curves were generated on CB1 receptor by testing a range of concentrations using TRex-CHO cells stably transfected with tetracycline inducible CB1 expression construct by flow cytometry. Three-fold serial dilutions from 3 μM to 0.1 μM were prepared. FITC-conjugated anti-human antibody was used to detect PA13R3-P1C4 Fab.

Molecule	EC50 [1] [nM]	effect on CP55,940-induced reduction in intracellular cAMP levels [2]	IC50 ([2]; all batches, 5 μM forskolin, 9 nM CP55,940, read-out: cAMP IC50 Mean ± SD) [nM]	block of WIN55,212 induced ERK phosphorylation [3]	effect on cAMP levels without exogenous agonist / mechanism [4]	recognition of denatured CB1 protein [5]	inhibition of WIN55,212 induced CB1 receptor internalization [6]	binding to TRex-CHO CB1 cells [7]
PA13R3-P1C4: phage-derived chimeric anti-CB1 IgG; HC variable SEQ ID NO: 2, LC variable SEQ ID NO: 6 (antibody, V domains shown, PA13R3-P1C4 Heavy chain variable region; PA13R3-P1C4 Light chain variable region) VH: EVQLQQSGAELVRPGVSVKISCKASGYEFSYYWMNWVKQRPGQGLEWIGQIYPGDGETKYNGKFKGKATLTADKSSNTAYMQLSSLTSEDSAVYFCARSHGNYLPYWGQGTLVTVSA VL: DIVLTQSPAIMSASLGERVTMTCTASSSVSSSYLHWYQQKPGSSPKLWIYSTSNLASGVPARFSGSGSGTSYSLTISSMEAEDAATYYCHQYHRSPPTFGAGTKLELK	0.17	dose-dependently inhibited	138 ± 21	blocked	inverse agonists	could not recognize denatured and linearized CB1 protein	inhibited	
PA13R3-P1C4 Fab: Fab fragment of chimeric PA13R3-P1C4 (antibody, V domains shown) VH: EVQLQQSGAELVRPGVSVKISCKASGYEFSYYWMNWVKQRPGQGLEWIGQIYPGDGETKYNGKFKGKATLTADKSSNTAYMQLSSLTSEDSAVYFCARSHGNYLPYWGQGTLVTVSA VL: DIVLTQSPAIMSASLGERVTMTCTASSSVSSSYLHWYQQKPGSSPKLWIYSTSNLASGVPARFSGSGSGTSYSLTISSMEAEDAATYYCHQYHRSPPTFGAGTKLELK	0.23							dose dependently bound
36E12B6C2: hybridoma-derived anti-CB1 mAb; HC variable SEQ ID NO: 18, LC variable SEQ ID NO: 22 (antibody, listed as Mus sp., V domains shown) VH: QVQLQQSGAELVRPGSSVKISCKASGYEFSYYWMNWVKQRPGQGLQWIGQIYPGDGDTNYNGKFKGKATLTADKSSSTAYMHLTSLTSEDSAVYFCARSGGNPFAFWGQGTLVTVSA VL: DIQMTQTSSSLSASLGDRVTFSCRASQDISNYLNWYQQKPDGTVKLLIYYTSRLHSGVTSRFRGSGSGTDYSLTISNLEQEDVATYFCQQGHTLPWSFGGGTKLEIK	0.201			blocked	inverse agonists			
